US20050191293A1 (Bristol-Myers Squibb, published 2005)
Substitutions are numbered along the chain they refer to.

T1: rhesus monkey IP-10 (rhesus monkey, UniProt Q8MIZ1 22-98)
T1 construct: Made by recombinant expression and purified by standard methods; also called Rhesus IP-10; rrmIP-10
T1 sequence: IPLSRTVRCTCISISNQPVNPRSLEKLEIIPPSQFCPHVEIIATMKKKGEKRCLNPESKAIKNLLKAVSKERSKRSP

T2: human MIG (monokine induced by gamma interferon) (human, UniProt Q07325 23-125)
T2 construct: Bought (PeproTech 300-26; R&D Systems for the migration assay)
T2 sequence: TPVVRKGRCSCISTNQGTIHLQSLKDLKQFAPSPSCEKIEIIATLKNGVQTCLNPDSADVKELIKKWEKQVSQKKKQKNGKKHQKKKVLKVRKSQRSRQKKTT

T3: mouse IP-10 (mouse, UniProt P17515 22-98)
T3 construct: Bought (PeproTech 250-16)
T3 sequence: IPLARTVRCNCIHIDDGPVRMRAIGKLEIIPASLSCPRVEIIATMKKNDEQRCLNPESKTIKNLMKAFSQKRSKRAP

T4: human ITAC (interferon-inducible T cell alpha chemoattractant) (human, UniProt O14625 22-94)
T4 sequence: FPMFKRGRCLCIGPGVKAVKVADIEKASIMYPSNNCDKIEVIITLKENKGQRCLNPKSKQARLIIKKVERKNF

B1: 8F6 human monoclonal antibody (antibody, V domains shown)
VH: QVQLVDSGGGVVQPGRSLRLSCAASGFTFNTYGMHWVRQAPGKGLEWVAVISYDGIIKHYADSVKGRFTITRDNSKNMVHLQMNSLRAEDTAVYYCARDSSSWYVYFDYWGQGTLVTVSS
VL: EIVLTQSPATLSLSPGERATLSCRASQSVSSYVAWYQQKPGQAPRLLIYDASNRATGIPARFSGSGSGTDFTLTISSLEPEDFAIYYCQQRSNSPPWTFGQGTKVEIK
notes: Human IgG with kappa light chain from a hybridoma of transgenic mice
B2: 10A12 human monoclonal antibody (antibody, V domains shown)
VH: QVQLVESGGGVVQPGRSLRLSCAASGFTFSNCGMHWVRQAPGKGLEWVALIGFDGINEYYADSVKGRFTISRDNSKNTLYLQMNSLRAEDTAVYYCARDWPEGYYNGMDVWGQGTTVTVSS
VL: not shown
notes: as for B1
B3: 10A12S (10A12 with cysteine 32 of VH CDR1 mutated to serine) (antibody, V domains shown)
VH: B2 VH with C32S
VL: not shown
B4: 7C10 human monoclonal antibody (antibody, V domains shown)
VH: QVQLVESGGGVVQPGRSLRLSCAASGFTFSNSGMHWVRQAPGKGLEWVAVIDYDGIIQYYADSVKGRFTISRDNSKNTLYLQINSLRAEDTAVYYCATERGTHYYGSGSFDYWGQGTLVTVSS
VL: DIQMTQSPSSLSASVGDRVTITCRASQGISSWLAWYQQKPEKAPKSLIYAASSLQSGVPSRFSGSGSGTDFTLTISSLQPEDFATYYCQQYNSYPPTFGGGTKVEIK
notes: as for B1
B5: 1E1 human monoclonal antibody (antibody, V domains shown)
VH: QEQLVESGGNVVQPGRSLRLSCAASGFTFSTYGMHWVRQAPGKGLEWVAVIWYDGSDKYYADSVKDRFTVSKDNSKNTLYLQMNSLRAEDTAVYYCARNIAVADVAFDLWGQGTMVTVSS
VL: not shown
notes: as for B1

Biological target: T1, rhesus monkey IP-10
Test: SPR (Biacore), antigen on CM5 chip, antibody 133 nM, 25 C
Method: (§1) The flow was then stopped and dissociation was monitored for 5 minutes. The association and dissociation curves were fit to a Langmuir binding model using BIAevaluation software (Biacore AB).

Row | Kd [nM] | Binder
1 | 0.81 | B1
2 | 0.71 | B2
3 | 1.21 | B3
4 | 4.4 | B4

Biological target: T2, human MIG (monokine induced by gamma …)
Test: as above
Method: as §1

Row | Kd [nM] | Binder
5 | 161 | B2
6 | 722 | B3

Biological target: T3, mouse IP-10
Test: as above
Method: as §1

Row | Kd [nM] | Binder
7 | 464 | B4

Biological target: T5, human IP-10 (interferon gamma inducible protein 10) (human, UniProt P02778 22-98)
T5 construct: Native IP-10 from THP-1 supernatant and from MS patient CSF in the migration assays is also put under this molecule; also called CXCL10; rhIP-10
Test: SPR (Biacore), human IP-10 on CM5 chip, 37 C
Method: (§2) Binding was measured by flowing the antibody in HBS EP buffer (provided by Biacore AB) at concentrations from 33-267 nM at a flow rate of 40 μl/min. The antigen-antibody association kinetics was followed for 5 minutes and the dissociation kinetics was followed for 8 minutes. The association and dissociation curves were fit to a 1:1 Langmuir binding model using BIAevaluation software (Biacore AB). Data corresponding to the initial few dozen seconds for association and dissociation phases alone were considered for curve fitting to minimize the effect of avidity. The experiments were performed at both 25° C. and 37° C.

T5 sequence (P02778 other isoform, or with tags, fused parts or gaps limits assumed): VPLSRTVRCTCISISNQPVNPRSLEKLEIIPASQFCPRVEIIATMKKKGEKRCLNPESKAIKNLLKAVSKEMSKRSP

Row | Kd [nM] | koff [s⁻¹] | kon [M⁻¹ s⁻¹] | Binder
8 | 0.78 | 0.00027 | 347000 | B1
9 | 0.34 | 3.81e-05 | 111000 | B2
10 | 0.49 | 4.43e-05 | 91000 | B3
11 | 0.016 | 8e-07 | 52700 | B4

Biological target: T5, human IP-10 (interferon gamma inducible …)
Test: cell-based or functional assay

Row | IC50 (nM) for HPBL: inhibition of IP-10-induced calcium flux in anti-CD3 activated human PBLs that express CXCR3 [nM] | IC50 (nM) for 300.19 Cells: inhibition of IP-10-induced calcium flux in 300.19 cells transfected to express CXCR3 [nM] | Binder
12 | 3.64 | – | B5
13 | 6.27 | 0.3 | B1
14 | 1.25 | 0.18 | B2
15 | 2.31 | 0.08 | B3
16 | 8.15 | 0.77 | B4

Biological target: T1, rhesus monkey IP-10
Test: cell-based or functional assay

Row | rrmIP-10 IC50: inhibition of migration of CXCR3-expressing 300.19 cells induced by 100 ng/ml recombinant rhesus macaque IP-10 [µg/mL] | Binder
17 | 0.1 | B1
18 | 15.1 | B3

Biological target: T5, human IP-10 (interferon gamma inducible …)
Test: cell-based or functional assay
Remark: another data set of the same source

Row | THP-1 IP-10 IC50: inhibition of migration of CXCR3-expressing 300.19 cells induced by native IP-10 in THP-1 supernatant, MIG blocked by anti-MIG [µg/mL] | rhIP-10 IC50: inhibition of migration of CXCR3-expressing 300.19 cells induced by 100 ng/ml recombinant human IP-10 [µg/mL] | Binder
19 | 0.173 | 0.355 | B1
20 | 0.211 | 0.115 | B3

Biological target: T5, human IP-10 (interferon gamma inducible …)
Test: SPR (Biacore), extension of dissociation curve, 37 C
Method: as §2
(§3) The values were determined by extension of the dissociation curves to get to the time required for the 50% reduction of the Y-axis of the dissociation sensogram.

Row | Half-life (dissociation of half of the antibody-antigen complex) [h] | Binder
21 | 0.71 | B1
22 | 5.05 | B2
23 | 4.34 | B3

Biological target: T1, rhesus monkey IP-10
Test: ELISA, plate coated with 1 ug/ml antigen
Method: (§4) The plates were washed with PBS/Tween and then incubated with a goat-anti-human IgG Fc polyclonal antibody conjugated with horseradish peroxidase (HRP) for 1 hour at room temperature. After washing, the plates were developed with ABTS substrate (Sigma, A-1888, 0.22 mg/ml) and analyzed by spectrophotometer at OD 415-495.

Row | EC50 [µg/mL] | Binder
24 | 0.031 | B1
25 | 0.08 | B2
26 | 0.0156 | B3

Biological target: T2, human MIG (monokine induced by gamma …)
Test: ELISA, plate coated with 1 ug/ml antigen
Method: as §4

Row | binding result | EC50 [µg/mL] | Binder
27 | no binding | – | B1
28 | – | 0.18 | B2
29 | – | 0.38 | B3

Biological target: T5, human IP-10 (interferon gamma inducible …)
Test: ELISA, plate coated with 1 ug/ml antigen
Method: as §4

Row | EC50 [µg/mL] | Binder
30 | 0.09 | B1
31 | 0.04 | B2
32 | 0.0049 | B3

Biological target: T3, mouse IP-10
Test: ELISA, plate coated with 1 ug/ml antigen
Method: as §4

Row | binding result | Binder
33 | no binding | B1
34 | no binding | B2
35 | no binding | B3

Biological target: T5, human IP-10 (interferon gamma inducible …)
Test: SPR (Biacore), human IP-10 on CM5 chip, 25 C
Method: as §2

Row | Kd [nM] | koff [s⁻¹] | kon [M⁻¹ s⁻¹] | Binder
36 | 0.81 | 0.00019 | 233000 | B1
37 | 0.53 | 2.02e-05 | 38300 | B2
38 | 0.88 | 3.24e-05 | 36800 | B3
39 | 0.02 | 4e-07 | 17000 | B4

Biological target: T5, human IP-10 (interferon gamma inducible …)
Test: cell-based or functional assay
Remark: another data set of the same source

Row | Expt. 1 IC50: inhibition of MS-CSF induced migration of CXCR3-expressing 300.19 cells, MIG neutralized by anti-MIG [µg/mL] | Expt. 2 IC50: inhibition of MS-CSF induced migration of CXCR3-expressing 300.19 cells, MIG neutralized by anti-MIG [µg/mL] | Binder
40 | 0.562 | 0.577 | B3

Biological target: T4, human ITAC (interferon-inducible T cell …)
Test: SPR (Biacore), antigen on CM5 chip, 25 C
Method: as §1

Row | binding result | Binder
41 | no binding (tested: 133 nM) | B1
42 | no binding (tested: 133 nM) | B2
43 | no binding (tested: 133 nM) | B3
44 | no binding (tested: 133 nM) | B4

Biological target: T5, human IP-10 (interferon gamma inducible …)
Test: inhibition of 0.100 nM 125I-IP-10 binding to CXCR3-expressing 300.19 cells
Method: The cells were grown in RPMI media containing 10% FCS and G418 selection. Prior to use, the cells were washed twice with Hank's Balanced Salt Solution (HBSS) at 4° C. and adjusted to 4×10⁷ cells/ml. Glass fiber plates (Millipore MultiScreen®, Cat. #MAFBNOB50) were blocked with 200 μl of a 0.1% polyethyleneimine solution one day prior to the experiment. On the day of the study, the blocking buffer was aspirated by using a Millipore manifold. The plates were washed three times with 200 μl of binding buffer (50 mM HEPES, pH 7.2, 1 mM CaCl₂, 5 mM MgCl₂, 0.5% BSA). […] The plates were incubated on a plate shaker for 60 minutes at room temperature and washed three times with wash buffer (10 mM HEPES, pH 7.2, 0.5 M NaCl, 0.5% BSA) at a volume of 200 μl per wash. The plates were dried, 25 μl of scintillant was added and the plates were counted on a Wallac Microbeta Counter. Data were analyzed using Prism software and a KD was calculated.
Competition assays were run in a similar manner to the experiment described above. […] Lastly, 25 μl of cells at a density of 1×10⁶ cells per well were added and the plates were incubated on a plate shaker for 60 minutes at room temperature, washed and counted as described above. EC₅₀ values were calculated using Prism software. Kᵢ values (in nM) were determined using the formula: […]

Row | Ki [nM] | Binder
45 | 0.29 | B5
46 | 0.16 | B1
47 | 0.09 | B2
48 | 0.06 | B3
49 | 0.41 | B4

Biological target: T5, human IP-10 (interferon gamma inducible …)
Test: SPR (Biacore), extension of dissociation curve, 25 C
Method: as §2, §3

Row | Half-life (dissociation of half of the antibody-antigen complex) [h] | Binder
50 | 1.01 | B1
51 | 9.53 | B2
52 | 5.94 | B3
